From PMC3897220, “A comparative study of Whi5 and retinoblastoma proteins: from sequence and structure analysis to intracellular networks” (Frontiers in Physiology, 2013)

T1: Whi5^Sc motif 3 peptide (residues 245-267), biotinylated (S. cerevisiae, UniProt Q12416 245-267, biotin (position not given))
T1 construct: Whi5 of Saccharomyces cerevisiae, motif 3, residues 245-267 (Whi5^Sc numbering); Held on a streptavidin chip by its biotin; source: synthetic peptide (Primm, Milano, Italy)
T1 peptide (looked up): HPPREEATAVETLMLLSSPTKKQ


Legend:
[1] = target: Whi5 (Whi5Sc) motif 3, 245-267 (UniProt Q12416); assay: SPR, biotinylated motif 3 on streptavidin chip; conditions: reference: unphosphorylated motif 1 peptide; sites T143,S154,S156,S161
[2] = target: T1, Whi5^Sc motif 3 peptide (residues …); assay: SPR; BIAcore X; biotinylated motif 3 immobilised on streptavidin Sensor Chip SA (~1000 resonance units), reference cell saturated with biotin; analytes motif 1 and phospho-motif 1 at 20 to 340 uM; HBS-EP buffer, flow 5 ul/min; conditions: both partners purified

| Molecule | binding against the reference [1] | binding result [2] |
| --- | --- | --- |
| Whi5 (Whi5Sc) motif 1, 136-162 (from UniProt Q12416) phospho-motif 1 peptide (pT143, pS154, pS156, pS161) | weaker |  |
| MPLLPPTTPKSRRSEVFLSPSPRLRSP (peptide, UniProt Q12416 136-162, looked up, Whi5 of Saccharomyces cerevisiae, motif 1, residues 136-162 (Whi5^Sc numbering); source: synthetic peptide (Primm, Milano, Italy)) [Whi5^Sc motif 1 peptide (residues 136-162)] |  | binds |
